Experimental data from US20260240998A1 (JICHI MEDICAL UNIVERSITY, published 2026).

Target: T1, B-cell maturation antigen (BCMA) (human, UniProt Q02223 1-184)
T1 sequence (looked up): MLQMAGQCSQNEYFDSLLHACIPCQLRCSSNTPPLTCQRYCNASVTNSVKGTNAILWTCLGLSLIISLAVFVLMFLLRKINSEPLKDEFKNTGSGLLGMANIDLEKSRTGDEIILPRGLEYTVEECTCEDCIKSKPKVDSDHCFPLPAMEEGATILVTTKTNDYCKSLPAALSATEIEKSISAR
Assay: cell-based or functional assay

B1: BCMA-CAR (L20H), LH construct derived from anti-BCMA antibody 1 with a 20 amino acid linker (other)
chain: DIVLTQSPASLAVSLGQRATISCRASKSVSTSGYSYMHWYQQKPGQPPRLLIYLASNLESGVPARFSGSGSGTDFTLNIHPVEEEDAATYYCQHSRELPFTFGSGTKLEIKGGGGSGGGGSGGGGSGGGGSEVQLQQSGPELVKPGASVKMSCKASGYTFTNYIIHWVKQKPGQGLEWIGYIIPYNDGSKYNEKFKGKATLTSDKSSSTAYMELSSLTSEDSAVYYCARLTFSYDSYAMDYWGQGTSVTVSSATGAAAIEVMYPPPYLDNEKSNGTIIHVKGKHLCPSPLFPGPSKPFWVLVVVGGVLACYSLLVTVAFIIFWVRSKRSRLLHSDYMNMTPRRPGPTRKHYQPYAPPRDFAAYRSRVKFSRSADAPAYQQGQNQLYNELNLGRREEYDVLDKRRGRDPEMGGKPRRKNPQEGLYNELQKDKMAEAYSEIGMKGERRRGKGHDGLYQGLSTATKDTYDALHMQALPPR
- luminescence intensity ratio of the U266 co-culture group to the control group (transduced cells only): 62.8 times
